Assay results taken from PMC4155161 (Structure(London, England:1993), 2014).

Experiments:
p53 (Danio rerio) = p53 (Danio rerio) (UniProt P79734); settings: cited from earlier work
[1] = target: the molecule itself; test: SEC-MALS; DRp53(302-331) at high concentrations (170 and 870 uM monomer at the peak); room temperature, 50 mM Tris pH 7.5, 150 mM NaCl, Superdex 75 10/300
[2] = target: the molecule itself; test: SEC-MALS; DRp53(302-345) at 185, 46 and 9 uM (monomer concentration at the peak); room temperature, 50 mM Tris pH 7.5, 150 mM NaCl, Superdex 75 10/300
[3] = target: the molecule itself; test: crystal structure; DRp53(302-346), two crystal forms (C222(1), 1.97 A; P2(1), 2.2 A), grown at 20 C with zinc acetate and polyethylene glycol

For p53 (from UniProt P79734), the Kd (p53 (Danio rerio)) is listed as 3.6 nM.

B1: zebrafish p53 tetramerization domain deletion variant lacking helix H2, DRp53(302-331) (domain or fragment, zebrafish (Danio rerio), UniProt G1K2L5 302-331, looked up)
chain: EEIFTLQVRGRERYEILKKLNDSLELSDVV
notes: numbering on UniProt/TrEMBL entry G1K2L5 (length of 374 amino acids); same vector and cleavage here; also called truncated domain; short variant; not shown: His6, N-terminal, cleaved; lipoyl domain of B. stearothermophilus dihydrolipoamide acetyltransferase, N-terminal, cleaved
For B1, the “stoichiometry N” value [1] was 4.

B2: zebrafish p53 tetramerization domain, residues 302-345, DRp53(302-345) (domain or fragment, zebrafish (Danio rerio), UniProt G1K2L5 302-345, looked up)
chain: EEIFTLQVRGRERYEILKKLNDSLELSDVVPASDAEKYRQKFMT
notes: numbering on UniProt/TrEMBL entry G1K2L5 (length of 374 amino acids); Used for SEC-MALS; the two may be the same construct; not shown: His6, N-terminal, cleaved; lipoyl domain of B. stearothermophilus dihydrolipoamide acetyltransferase, N-terminal, cleaved; GGS, N-terminal, kept
With B2 the “stoichiometry N” value [2] was 4.

B3: zebrafish p53 tetramerization domain, DRp53(302-346) (domain or fragment, zebrafish (Danio rerio), UniProt G1K2L5 302-346, looked up)
chain: EEIFTLQVRGRERYEILKKLNDSLELSDVVPASDAEKYRQKFMTK
notes: numbering on UniProt/TrEMBL entry G1K2L5 (length of 374 amino acids); Crystallised construct; same vector and cleavage here; also called full-length tetramerization domain; long variant; not shown: His6, N-terminal, cleaved; lipoyl domain of B. stearothermophilus dihydrolipoamide acetyltransferase, N-terminal, cleaved
B3: binds [3].
